Laboratory results from patent US20140371143A1.

Target: RANKL ectodomain (eRANKL, residues 157-316) of rat (rat) (UniProt Q9ESE2)
Assay: crystal structure of the complex

UniProt Q9ESE2, sequence (Q9ESE2 157-316 limits assumed): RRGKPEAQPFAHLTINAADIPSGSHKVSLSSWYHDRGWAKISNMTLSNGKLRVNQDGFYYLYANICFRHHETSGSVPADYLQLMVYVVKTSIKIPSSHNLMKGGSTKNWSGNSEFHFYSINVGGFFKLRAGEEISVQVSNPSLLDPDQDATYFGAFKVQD

reduction of solvent accessible surface area on binding: 7680 Å^2
reduction of solvent accessible surface area on binding, share of the total accessible surface area of unbound receptors and ligands: 15.4%
Substance: RANK ectodomain (eRANK, residue 32-201) of rat (receptor)
